Three molecules from article PMC9927256, “Structural and Functional Characterization of Rv0792c from Mycobacterium tuberculosis: Identifying Small Molecule Inhibitor against HutC Protein” (Microbiology Spectrum, 2022) can be followed below.

One data set addresses T1, Rv0792c (Mycobacterium tuberculosis, UniProt O86331).
T1 construct: His6-Rv0792c
Briefly: […]; EMSA with Cy5-labeled native promoter. Format: binding. Background: Mobility shift assays separate free from complexed probe on a gel.

Data set [1] deals with T2, Rv0792c (HutC, GntR family) (Mycobacterium tuberculosis) (UniProt O86331).
T2 sequence (O86331 whole entry, looked up): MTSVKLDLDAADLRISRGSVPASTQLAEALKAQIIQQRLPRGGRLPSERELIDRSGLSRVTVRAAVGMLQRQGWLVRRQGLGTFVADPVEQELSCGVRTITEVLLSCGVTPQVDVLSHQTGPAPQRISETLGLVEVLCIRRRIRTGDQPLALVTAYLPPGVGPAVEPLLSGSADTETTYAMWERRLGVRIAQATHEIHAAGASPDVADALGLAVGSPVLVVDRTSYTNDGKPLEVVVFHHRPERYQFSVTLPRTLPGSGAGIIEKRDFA
Kind of data set: ALISA (plate-immobilized protein).

Data set [2] deals with T2, Rv0792c (HutC, GntR family) (Mycobacterium tuberculosis). Kind of data set: competitive ALISA.
Data set [3] concerns the molecule itself. Briefly: AUC; sedimentation velocity; Rv0792c at 0.38, 0.76 and 1.52 mg/mL in 25 mM HEPES pH 7.2, 400 mM NaCl, 10% glycerol; 40,000 rpm; absorbance at 280 nm; c(s) analysis with SedFit; S20,w.

The term IC50 denotes the concentration needed to halve the response being measured. `COc1cc(/C=C(\C#N)C(=O)c2ccc(O)c(O)c2)cc(I)c1O` [I-OMe-Tyrphostin, (2E)-2-(3,4-dihydroxybenzoyl)-3-(4-hydroxy-3-iodo-5-methoxyphenyl) acrylonitrile] had an IC50 at Rv0792c of approximately 109 nM.
The term Kd denotes the constant that tells how readily two partners part at equilibrium. High values mean lower affinity, low ones higher affinity. Turning to “TCTAGTCATTCGTCATAATCCCATCTGTTTCTTCCTCCTTCCGT [Rv0792c_2 aptamer (also Rv0729c_2)]”, the Kd in data set [1] amounted to 51 nM. This molecule also had a half-maximal inhibitory concentration (IC50) in data set [2] of 109 nM.

B1: Rv0792c from Mycobacterium tuberculosis, wild type, with an amino-terminal histidine tag (natural protein)
chain: MTSVKLDLDAADLRISRGSVPASTQLAEALKAQIIQQRLPRGGRLPSERELIDRSGLSRVTVRAAVGMLQRQGWLVRRQGLGTFVADPVEQELSCGVRTITEVLLSCGVTPQVDVLSHQTGPAPQRISETLGLVEVLCIRRRIRTGDQPLALVTAYLPPGVGPAVEPLLSGSADTETTYAMWERRLGVRIAQATHEIHAAGASPDVADALGLAVGSPVLVVDRTSYTNDGKPLEVVVFHHRPERYQFSVTLPRTLPGSGAGIIEKRDFA
notes: also called His6-Rv0792c; (His)6-Rv0792c; not shown: His6, N-terminal, kept
By stoichiometry N is commonly meant a count of units in the complex or per binding partner. B1: the “stoichiometry N” value in data set [3] is 2.
